Results taken from article PMC3724922 (PLoS ONE, 2013).

Experiments:
[1] = biological target: the molecule itself; assay: native gel or EMSA; purified recombinant proteins, non-reducing, non-denaturing electrophoresis (SDS- and DTT-free loading buffer), immunoblot with anti-laforin or anti-HIS antibody; self-association, monomer and dimer bands
[2] = biological target: the molecule itself; assay: native gel or EMSA; purified recombinant proteins incubated with 10 mM H2O2, then non-reducing, non-denaturing electrophoresis, anti-laforin immunoblot

Row | Protein | binding result [1] | binding result [2]
1 | laforin C109S/110S, recombinant, no epitope tag (enzyme, human, UniProt O95278 1-331, looked up, laforin, human, 331 amino acids (EPM2A), double mutant C109S/110S; source: E. coli BL21 (RIL), pET21b+, purified (amylose resin)) MRFRFGVVVPPAVAGARPELLVVGSRPELGRWEPRGAVRLRPAGTAAGDGALALQEPGLWLGEVELAAEEAAQDGAEPGRVDTFWYKFLKREPGGELSWEGNGPHHDRSSTYNENNLVDGVYCLPIGHWIEATGHTNEMKHTTDFYFNIAGHQAMHYSRILPNIWLGSCPRQVEHVTIKLKHELGITAVMNFQTEWDIVQNSSGCNRYPEPMTPDTMIKLYREEGLAYIWMPTPDMSTEGRVQMLPQAVCLLHALLEKGHIVYVHCNAGVGRSTAAVCGWLQYVMGWNLRKVQYFLMAKRPAVYIDEEALARAQEDFFQKFGKVRSSVCSL | binds | –
2 | laforin C123S, recombinant, no epitope tag (enzyme, human, UniProt O95278 1-331, looked up, laforin, human, 331 amino acids (EPM2A), mutant C123S; source: E. coli BL21 (RIL), pET21b+, purified (amylose resin)) MRFRFGVVVPPAVAGARPELLVVGSRPELGRWEPRGAVRLRPAGTAAGDGALALQEPGLWLGEVELAAEEAAQDGAEPGRVDTFWYKFLKREPGGELSWEGNGPHHDRCCTYNENNLVDGVYSLPIGHWIEATGHTNEMKHTTDFYFNIAGHQAMHYSRILPNIWLGSCPRQVEHVTIKLKHELGITAVMNFQTEWDIVQNSSGCNRYPEPMTPDTMIKLYREEGLAYIWMPTPDMSTEGRVQMLPQAVCLLHALLEKGHIVYVHCNAGVGRSTAAVCGWLQYVMGWNLRKVQYFLMAKRPAVYIDEEALARAQEDFFQKFGKVRSSVCSL | binds | –
3 | laforin wild type, recombinant, no epitope tag (enzyme, human, UniProt O95278 1-331, looked up, laforin, human, a 331 amino acid protein encoded by EPM2A; amplified from pEG202-laforin into pET21b+ (NdeI, NotI); also called laforin WT; wt laforin; source: E. coli BL21 (RIL), pET21b+-laforin, purified (amylose resin)) MRFRFGVVVPPAVAGARPELLVVGSRPELGRWEPRGAVRLRPAGTAAGDGALALQEPGLWLGEVELAAEEAAQDGAEPGRVDTFWYKFLKREPGGELSWEGNGPHHDRCCTYNENNLVDGVYCLPIGHWIEATGHTNEMKHTTDFYFNIAGHQAMHYSRILPNIWLGSCPRQVEHVTIKLKHELGITAVMNFQTEWDIVQNSSGCNRYPEPMTPDTMIKLYREEGLAYIWMPTPDMSTEGRVQMLPQAVCLLHALLEKGHIVYVHCNAGVGRSTAAVCGWLQYVMGWNLRKVQYFLMAKRPAVYIDEEALARAQEDFFQKFGKVRSSVCSL | – | binds
4 | laforin C169S, recombinant, no epitope tag (enzyme, human, UniProt O95278 1-331, looked up, laforin, human, 331 amino acids (EPM2A), mutant C169S; source: E. coli BL21 (RIL), pET21b+, purified (amylose resin)) MRFRFGVVVPPAVAGARPELLVVGSRPELGRWEPRGAVRLRPAGTAAGDGALALQEPGLWLGEVELAAEEAAQDGAEPGRVDTFWYKFLKREPGGELSWEGNGPHHDRCCTYNENNLVDGVYCLPIGHWIEATGHTNEMKHTTDFYFNIAGHQAMHYSRILPNIWLGSSPRQVEHVTIKLKHELGITAVMNFQTEWDIVQNSSGCNRYPEPMTPDTMIKLYREEGLAYIWMPTPDMSTEGRVQMLPQAVCLLHALLEKGHIVYVHCNAGVGRSTAAVCGWLQYVMGWNLRKVQYFLMAKRPAVYIDEEALARAQEDFFQKFGKVRSSVCSL | binds | –
5 | laforin C205S, recombinant, no epitope tag (enzyme, human, UniProt O95278 1-331, looked up, laforin, human, 331 amino acids (EPM2A), mutant C205S; source: E. coli BL21 (RIL), pET21b+, purified (amylose resin)) MRFRFGVVVPPAVAGARPELLVVGSRPELGRWEPRGAVRLRPAGTAAGDGALALQEPGLWLGEVELAAEEAAQDGAEPGRVDTFWYKFLKREPGGELSWEGNGPHHDRCCTYNENNLVDGVYCLPIGHWIEATGHTNEMKHTTDFYFNIAGHQAMHYSRILPNIWLGSCPRQVEHVTIKLKHELGITAVMNFQTEWDIVQNSSGSNRYPEPMTPDTMIKLYREEGLAYIWMPTPDMSTEGRVQMLPQAVCLLHALLEKGHIVYVHCNAGVGRSTAAVCGWLQYVMGWNLRKVQYFLMAKRPAVYIDEEALARAQEDFFQKFGKVRSSVCSL | binds | –
6 | laforin C266S, recombinant, no epitope tag (enzyme, human, UniProt O95278 1-331, looked up, laforin, human, 331 amino acids (EPM2A), catalytic cysteine mutant C266S; source: E. coli BL21 (RIL), pET21b+, purified (amylose resin)) MRFRFGVVVPPAVAGARPELLVVGSRPELGRWEPRGAVRLRPAGTAAGDGALALQEPGLWLGEVELAAEEAAQDGAEPGRVDTFWYKFLKREPGGELSWEGNGPHHDRCCTYNENNLVDGVYCLPIGHWIEATGHTNEMKHTTDFYFNIAGHQAMHYSRILPNIWLGSCPRQVEHVTIKLKHELGITAVMNFQTEWDIVQNSSGCNRYPEPMTPDTMIKLYREEGLAYIWMPTPDMSTEGRVQMLPQAVCLLHALLEKGHIVYVHSNAGVGRSTAAVCGWLQYVMGWNLRKVQYFLMAKRPAVYIDEEALARAQEDFFQKFGKVRSSVCSL | binds | –
7 | wild type laforin with an amino-terminal HIS6 epitope (enzyme, human, UniProt O95278 1-331, looked up, laforin, human, 331 amino acids (EPM2A); The plasmid of the His6 constructs is not described in the methods; also called laforin-WT; WT; not shown: His6, N-terminal, kept) MRFRFGVVVPPAVAGARPELLVVGSRPELGRWEPRGAVRLRPAGTAAGDGALALQEPGLWLGEVELAAEEAAQDGAEPGRVDTFWYKFLKREPGGELSWEGNGPHHDRCCTYNENNLVDGVYCLPIGHWIEATGHTNEMKHTTDFYFNIAGHQAMHYSRILPNIWLGSCPRQVEHVTIKLKHELGITAVMNFQTEWDIVQNSSGCNRYPEPMTPDTMIKLYREEGLAYIWMPTPDMSTEGRVQMLPQAVCLLHALLEKGHIVYVHCNAGVGRSTAAVCGWLQYVMGWNLRKVQYFLMAKRPAVYIDEEALARAQEDFFQKFGKVRSSVCSL | binds | –
8 | laforin C250S, recombinant, no epitope tag (enzyme, human, UniProt O95278 1-331, looked up, laforin, human, 331 amino acids (EPM2A), mutant C250S; source: E. coli BL21 (RIL), pET21b+, purified (amylose resin)) MRFRFGVVVPPAVAGARPELLVVGSRPELGRWEPRGAVRLRPAGTAAGDGALALQEPGLWLGEVELAAEEAAQDGAEPGRVDTFWYKFLKREPGGELSWEGNGPHHDRCCTYNENNLVDGVYCLPIGHWIEATGHTNEMKHTTDFYFNIAGHQAMHYSRILPNIWLGSCPRQVEHVTIKLKHELGITAVMNFQTEWDIVQNSSGCNRYPEPMTPDTMIKLYREEGLAYIWMPTPDMSTEGRVQMLPQAVSLLHALLEKGHIVYVHCNAGVGRSTAAVCGWLQYVMGWNLRKVQYFLMAKRPAVYIDEEALARAQEDFFQKFGKVRSSVCSL | binds | –
